Experimental data published in patent US20170157165, “APTAMER FOR FGF2 AND USE THEREOF” (RIBOMIC INC., published 2017).

Legend:
[1] = target: T1, FGF2 (Homo sapiens, UniProt P09038 P09038:135-288); experiment: inhibition; SPR inhibition of FGF2-FGFR1alpha(IIIc); each 0.1 uM; details: tags: Peprotech
Experimental: BIAcore2000 manufactured by BIAcore was used for the measurement. As directed in BIAcore Company's protocol, Protein A (21181, manufactured by PIERCE) was immobilized on a CM5 sensor chip. About 1,000 RU of human FGFR1α (IIIc), R2α (IIIc), R3 (IIIc), R4 (manufactured by R&D Systems) fused with the Fc portion of IgG (manufactured by R&D systems) was each immobilized thereon. As analyte, a mixture of FGF2 (0.1 μM), heparin (0.1 μM) (manufactured by Pfizer) and aptamer (0.15 μM) was flown. Before an inhibitory test, a mixture of FGF2 and heparin was confirmed to bind to 4 kinds of receptors. […] A sensorgram showing that the aptamer shown by aptamer ID 1 inhibits binding of FGF2 and FGFR1α(IIIc), 2α(IIIc), 3(IIIc), 4 is shown in FIG. 2.
In addition, the inhibitory rate against each of the 4 kinds of receptors was determined. The inhibitory rate was determined with the maximum binding amount of the FGF2 and heparin mixture as 0, and the binding amount with an injection buffer alone as 100. The binding amount here means the RU value of the peak top of sensorgram. The inhibitory rate was calculated. […] The inhibitory rate of other aptamers was not more than 50%.
To enhance FGF2-binding activity, stability, drug deliverability and the like, the nucleic acids shown by aptamer IDs 3(1)-3(40), aptamer IDs 4 and 4(1)-4(4), aptamer ID 5 and aptamer ID 6 were chemically synthesized based on the aptamer shown in SEQ ID NO: 3. Here, the aptamer shown by aptamer ID 4 is the aptamer shown by aptamer ID 3(19) wherein one G(M) at the 5′-terminal and one C(M) at the 3′-terminal have been deleted. The aptamer shown by aptamer ID 5 is the aptamer shown by aptamer ID 3(19) wherein one G(M) has been added at the 5′-terminal and one C(M) has been added at the 3′-terminal. The aptamer shown by aptamer ID 6 is the aptamer shown by aptamer ID 3(19) wherein A(M) alone has been added at the 5′-terminal. These nucleic acids were produced by chemical synthesis.

[2] = target: T1, FGF2; experiment: cell_activity; HUVEC proliferation, FGF2 0.58 nM; details: tags: Peprotech
Experimental: Human umbilical vein endothelial cells (HUVEC) were seeded in a 96 well flat bottom plate at 5×10³ cells per well, and cultured overnight using a medium EGM-2 Bullet Kit for endothelial cells (CC-3162 manufactured by Lonza) containing 2% fetal bovine serum and growth factors. Thereafter, the medium was discarded, the cells were washed twice with PBS buffer, and a mixture of the aptamer shown by aptamer ID 3(21) (5, 2.5, 1, 0.5 nM) and FGF2 (final concentration 0.5 nM), dissolved in a medium exclusively for endothelial cells containing 2% fetal bovine serum, was added. After 72 hr, viable cell number was examined using Cell Counting Kit-8. For the measurement of absorbance, a microplate reader (450 nm) was used. One sample was measured at n=3. As a positive control, anti-FGF2 antibody Anti-FGF, basic (Ab-3) Mouse mAb (3H3) (manufactured by Calbiochem) were used. With the OD value per well obtained by the addition of FGF2 alone and culture of the cells for 3 days as inhibitory activity 0%, and that of the cell obtained by FGF2 free culture for 3 days as inhibitory activity 100%, the inhibitory activity of the aptamer was calculated from the OD value per well obtained by culturing with the addition of a mixture of FGF2 and the aptamer. As a result, it was shown that the aptamer shown by aptamer ID 3(21) has a high inhibitory activity against FGF2.
By a method similar to the above except that the 96 well flat bottom plate was changed to a collagen-coated one, the activity of various aptamers was evaluated. The concentration of FGF2 added was 0.58 nM. As a negative control RNA, Macugen (registered trade mark) sequence without addition of PEG, and with C6 modification of the 5′-terminal and idT modification of the 3′-terminal was used.

T1 sequence (P09038 135-288, one chain of several): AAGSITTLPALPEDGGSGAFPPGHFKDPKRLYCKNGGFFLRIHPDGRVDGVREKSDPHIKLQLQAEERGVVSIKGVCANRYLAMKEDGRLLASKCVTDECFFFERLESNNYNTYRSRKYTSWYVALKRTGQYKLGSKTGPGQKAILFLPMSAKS

B1: aptamer ID 3(8) (ssRNA)
RNA: GGGAUACUAGGGCAUUAAUGUUACCAGUGUAGUCCC
modifications: all C and U 2'-F; 2'-OMe at G1,G2,G3,A4,A9,G10,G11,A14,A17,A18,G20,A23,A26; other purines 2'-OH; 3' idT
activity [1]: 84%
IC50 [2]: 27 nM

GGGAUACUAGGGCAUUAAUGUUACCAGUGUAGUCCC (ssRNA, all C and U 2'-F; 2'-OMe at G11; other purines 2'-OH) [aptamer ID 3(3)]
activity [1]: 87%

GGGAUACUAGGGCAUUAAUGUUACCAGUGUAGUCCC (ssRNA, all C and U 2'-F; 2'-OMe at A26; other purines 2'-OH) [aptamer ID 3(7)]
activity [1]: 89%

GGGAUACUAGGGCAUUAAUGUUACCAGUGUAGUCCC (ssRNA, all C and U 2'-F; 2'-OMe at G1,G2,G3,A4; other purines 2'-OH) [aptamer ID 3(2)]
activity [1]: 89%

B2: aptamer ID 3(38) (ssRNA)
RNA: GGGAUACUAGGGCAUUAAUGUUACCAGUGUAGUCCC
modifications: 2'-F at U8,U16,U21,U28,U30; 2'-OH at G12,G27,G29; all others 2'-OMe; 5' PEG 10K (ME-100TS)-C6; 3' idT
activity [1]: 97%

B3: aptamer ID 3(33) (ssRNA)
RNA: GGGAUACUAGGGCAUUAAUGUUACCAGUGUAGUCCC
modifications: 2'-F at U8,U16,U21,U28,U30; 2'-OH at G12,G27,G29; all others 2'-OMe; PS between G29 and U30
activity [1]: 90%
IC50 [2]: 4 nM

GGGAUACUAGGGCAUUAAUGUUACCAGUGUAGUCCC (ssRNA, 2'-F at U8,G12,U16,U21,U28,U30; 2'-OH at G27,G29; all others 2'-OMe) [aptamer ID 3(25)]
activity [1]: 90%
IC50 [2]: 5.1 nM

GGGAUACUAGGGCAUUAAUGUUACCAGUGUAGUCCC (ssRNA, 2'-F at U8,U16,U21,U28,U30; G27 DNA (2'-H); 2'-OH at G12,G29; all others 2'-OMe) [aptamer ID 3(24)]
activity [1]: 90%
IC50 [2]: 7.3 nM

B4: aptamer ID 3(37) (ssRNA)
RNA: GGGAUACUAGGGCAUUAAUGUUACCAGUGUAGUCCC
modifications: 2'-F at U8,U16,U21,U28,U30; 2'-OH at G12,G27,G29; all others 2'-OMe; 5' PEG 40K (Y-NHS-40K)-ssH; 3' idT
activity [1]: 97%

B5: aptamer ID 3(16) (ssRNA)
RNA: GGGAUACUAGGGCAUUAAUGUUACCAGUGUAGUCCC
modifications: 2'-OMe at G1,G2,G3,A4,C7,A9,G10,G11,A14,A17,A18,G20,A23,A26; other C and U 2'-F; other purines 2'-OH
activity [1]: 87%
IC50 [2]: 7.9 nM

GGGAUACUAGGGCAUUAAUGUUACCAGUGUAGUCCC (ssRNA, all C and U 2'-F; 2'-OMe at A23; other purines 2'-OH) [aptamer ID 3(6)]
activity [1]: 78%

B6: aptamer ID 3(13) (ssRNA)
RNA: GGGAUACUAGGGCAUUAAUGUUACCAGUGUAGUCCC
modifications: 2'-OMe at G1,G2,G3,A4,A9,G10,G11,A14,U15,U16,A17,A18,U19,G20,A23,A26; other C and U 2'-F; other purines 2'-OH
activity [1]: 88%
IC50 [2]: 15 nM

B7: aptamer ID 3(39) (ssRNA)
RNA: GGGAUACUAGGGCAUUAAUGUUACCAGUGUAGUCCC
modifications: 2'-F at U8,U16,U21,U28,U30; 2'-OH at G12,G27,G29; all others 2'-OMe; 5' PEG 10K 4-branched (PTE-100CS)-C6; 3' idT
activity [1]: 97%

B8: aptamer ID 3(31) (ssRNA)
RNA: GGGAUACUAGGGCAUUAAUGUUACCAGUGUAGUCCC
modifications: 2'-F at U8,U16,U21,U28,U30; 2'-OH at G12,G27,G29; all others 2'-OMe; PS between G27 and U28
activity [1]: 91%
IC50 [2]: 10 nM

B9: aptamer ID 3(15) (ssRNA)
RNA: GGGAUACUAGGGCAUUAAUGUUACCAGUGUAGUCCC
modifications: 2'-OMe at G1,G2,G3,A4,A9,G10,G11,A14,A17,A18,G20,A23,C24,C25,A26; other C and U 2'-F; other purines 2'-OH
activity [1]: 86%
IC50 [2]: 14 nM

B10: aptamer ID 3(36) (ssRNA)
RNA: GGGAUACUAGGGCAUUAAUGUUACCAGUGUAGUCCC
modifications: 2'-F at U8,U16,U21,U28,U30; 2'-OH at G12,G27,G29; all others 2'-OMe; 5' PEG 80K (GL4-800TS)-C6; 3' idT
activity [1]: 98%

GGGAUACUAGGGCAUUAAUGUUACCAGUGUAGUCCC (ssRNA, 2'-F at U8,G12,U16,U21,G27,U28,G29,U30; all others 2'-OMe; 3' idT) [aptamer ID 3(34)]
activity [1]: 91%

B11: aptamer ID 3(30) (ssRNA)
RNA: GGGAUACUAGGGCAUUAAUGUUACCAGUGUAGUCCC
modifications: 2'-F at U8,U16,U21,U28,U30; 2'-OH at G12,G27,G29; all others 2'-OMe; PS between A26 and G27
activity [1]: 99%
IC50 [2]: 3.3 nM

GGGAUACUAGGGCAUUAAUGUUACCAGUGUAGUCCC (ssRNA, 2'-F at U8,U16,U21,U28,U30; 2'-OH at G12,G27,G29; all others 2'-OMe; 5' idT) [aptamer ID 3(20)]
activity [1]: 96%

B12: aptamer ID 3(29) (ssRNA)
RNA: GGGAUACUAGGGCAUUAAUGUUACCAGUGUAGUCCC
modifications: 2'-F at U8,U16,U21,U28,U30; 2'-OH at G12,G27,G29; all others 2'-OMe; PS between G12 and C13
activity [1]: 91%
IC50 [2]: 3.1 nM
